Assay results from PMC10398351, “Structural and molecular insight into antibody recognition of dynamic neoepitopes in membrane tethered MUC1 of pancreatic cancer cells and secreted exosomes” (RSC Chemical Biology, 2023).
Entries after “also recorded” stand apart in the source; their conditions may differ.

What was measured:
MUC1 TRD [1] = conditions: cited from earlier work
Excerpt: By using a robust synthetic glycopeptide library,[21–24] we have established a straightforward approach to antibodies recognizing cancer-relevant glycopeptidic epitopes modified with aberrant O-glycans, namely “dynamic neoepitopes”, found in the MUC1 TRD (Fig. 2a).[19,20] […] We considered that SN-131 is a highly potential anti-MUC1 antibody because this antibody binds specifically MUC1 TRD having core 1 type O-glycans overexpressed in many cancers including pancreatic cancer but not core 2 type O-glycans found in normal cells. However, the structural and molecular basis of the epitope recognition by SN-131 remain to be fully understood. We needed to investi ...

[2] = target: MUC1 bearing ST antigen at the immunodominant DTR motif; assay: SPR affinity of SN-131 with MUC1 bearing ST antigen; format: binding; conditions: SN-131 with MUC1 bearing ST antigen at the immunodominant DTR motif; abstract
Description: The binding affinity of SN-131 Fab with MUC1 TRD models was measured by using a Biacore 2000 surface plasmon resonance (SPR) instrument (GE Healthcare). Synthetic MUC1 TRD models 2–4 with a C-terminal cysteine residue were immobilized on a CM5 chip (GE Healthcare) by a standard protocol of the maleimide coupling. The SN-131 Fab was injected over the surface of the immobilized MUC1 TRD models 2–4 and three kinetic parameters, the association rate constant (kon), the dissociation rate constant (koff), and the equilibrium dissociation constant (KD) were obtained with BIAevaluation 4.1 software (GE Healthcare) using a bivalent binding model. Isothermal titration calorimetry (ITC) experiments were also carried out to determine the thermodynamic parameters of the interaction between SN-131 and non-glycosylated-/Tn-MUC1 TRDs.7 All experiments and analyses were performed by using nano ITC (TA Instrument) and Nanoanalyze based on as independent model.

MUC1 TRD [3] = assay: Epitope mapping of SN-131 on glycopeptide microarray; format: binding; conditions: SN-131 1 µg/mL, 2 h at room temperature, Cy3 labeled anti-mouse IgG
Description: 100 mM solutions of the synthetic glycopeptides capped with ketone-linker at the N-terminus (5–9) dissolved in 25 mM sodium acetate buffer (pH 5.0) containing 0.005% Tween-20 (w/v) were robotically printed on plastic slides coated with a copolymer carrying aminooxy-/phosphorylcholine functional groups according to the protocol reported previously.[20,22,24] Detailed conditions for the binding assay are described in the ESI. ^† […]
as Additional Data in Supporting Information. Compounds 3 , 5, and 6 were synthesized previously5,7,8 and available for the present study.
Glycopeptide microarray. 100 mM solutions of the synthetic glycopeptides capped with ketone-linker at N -terminus (5~9) dissolved in 25 mM sodium acetate buffer (pH 5.0) containing 0.005% Tween- 20 (w/v) were robotically printed on plastic slides coated with a copolymer carrying aminooxy-/phosphorylcholine functional groups according to the protocol reported previ ousl y.5,7-9 For the epitope analysis of SN-131, antibody solutions (1 µg/mL) were added to each well of the slides. After incubation for 2 h at room temperature, the slides were rinsed and added with Cy3 labeled anti-mouse IgG polyclonal antibody (1 µg/mL). After washing, fluorescence of the wells were measured using a GlycoStation 1200 system and analysed with the ArrayVision […]
Anti-MU C1 mA b (SN -131). […]

PANC-1 cells = assay: Live cell imaging of Alexa488-conjugated SN-131 on PANC-1 cells; format: cell-based, human; conditions: Alexa 488 conjugated SN-131 10 μg mL−1, 2 h at 37 °C
Description: PANC-1 cells (5 × 10^4 cells per well) were cultured with 10% FBS and 2 mM L-glutamine on an 8-well imaging plate (Fischer Scientific) for 48 h in 5% CO2 at 37 °C. Then, Alexa 488 conjugated SN-131 (10 μg mL^−1), 10 μM MUC1-5ST (8), or MAG (5 μg mL^−1) dissolved in Opti-MEM medium (gibco) was co-incubated with PANC-1 cells for 2 h in 5% CO2 at 37 °C. Cells were washed with Opti-MEM and stained with Hoechst 33342 (2.5 ng mL^−1 in Opti-MEM) for 30 min. […] The pictures were imaged with 60xlens and the following filter set (Blue: #OP-66843 Excitation 360/40, Emission 460/50, Green: #OP-66836, Excitation 470/40, Emission 535/50, Red: #OP-66837, Excitation 540/25, Emission […]). Imaging pictures were analysed by BZ-II Analyzer software (Keyence, Osaka).

B1: SN-131: anti-MUC1 mAb (clone 1B2, IgG2a) binding MUC1 TRD with Tn, T and ST antigens at the DTR motif (antibody, V domains shown)
VH: QVQLQQSGAELARPGASVKLSCKASGYTFTNYGLSWVKQRTGQGLEWIGENHPGSGIIYHNEKFRGKATLTADKSSSTAYVQLSSLTSEDSAVYFCARSSGTRGFAYWGQGTLVTVSA
VL: DVLMTQTPLSLPVSLGDQASISCRSSQSIVHSNGNTYLEWYLQKPGQSPKLLIYKVSNRFSGVPDRFSGSGSGTDFTLKISRVEAEDLGVYYCFQGSHGPWTFGGGTKLEIK
In the case of B1, the “glycoform specificity of binding to MUC1 TRD” value (MUC1 TRD [1]) is listed as “does not bind to MUC1 TRD when the threonine residue of this immunodominant region is modified with STn, dST, or core 2-type mature complex O-glycan structures”, the Kd [2] is listed as 1.58 nM and the “binding of SN-131 to MUC1 TRD glycoforms (epitope mapping, in words)” value (MUC1 TRD [3]) is listed as “binds MUC1 TRD with Tn, T, and ST antigens attached to the immunodominant DTR motif; also recorded: did not bind to non-glycosylated MUC1 TRD”. For the same molecule, the “binding to PANC-1 cell surface MUC1 TRD” value (PANC-1 cells) was “binds strongly”.
